Experimental data as given in patent CN101899115A.

Assays:
[1] = molecular target: CD19 (on Raji cells) (UniProt P15391); experiment: FACS, HIT19a alone on Raji cells, FITC anti-mouse IgG
[2] = molecular target: CD3 (on Jurkat cells) (UniProt P07766); experiment: FACS, HIT3a alone on Jurkat cells, FITC anti-mouse IgG
[3] = molecular target: CD3 (on Jurkat cells) (UniProt P07766); experiment: FACS competition on Jurkat cells: ds-Diabody mixed with competitor HIT3a, HIT3a detected with FITC anti-mouse IgG
[4] = molecular target: CD19 (on Raji cells) (UniProt P15391); experiment: FACS competition on Raji cells: ds-Diabody mixed with competitor HIT19a, HIT19a detected with FITC anti-mouse IgG

抗CD19鼠源性单克隆抗体HIT19a (antibody)
细胞结合阳性率 [1]: 100%

抗CD3鼠源性单克隆抗体HIT3a (antibody)
细胞结合阳性率 [2]: 100%

B1: 二硫键稳定的抗CD3-抗CD19微型双功能抗体 (disulfide-stabilized anti-CD3/anti-CD19 diabody) (bispecific antibody)
chain 1: ADIELTQSPAIMSASPGEKVTMTCSASSSVSYMNWYQQKSGTSPKRWIYDTSKLASGVPARFSGSGSGTSYSLTISGMEAEDAATYYCQQWSSNPFTFGCGTKLELKRGGGGSQVQLQQSGAELVRPGSSVKISCKASGYAFSSYWMNWVKQRPGQGLEWIGQIYPGDGDTNYNGKFKGQATLTADKSSSTAYMQLSGLTSEDSAVYFCARKTISSVVDFYFDYWGQGTTLTVSS
chain 2: DIVLTQSPKFMSTSVGDRVSSPAKASQNVGTNVAWYQQKPGQSPKPLIYSATYRNSGVPDRFTGSGSGTDFTLTITNVQSKDLADYFCQQYNRYPYTSGGGTKLEIKRGGGGSQVQLQQSGAELARPGASVKMSCKASGYTFTRYTMHWVKQRPGQCLEWIGYINPSRGYTNYNQKFKDKATLTTDKSSSTAYMELTRLTSEDSAVYYCARYYDDHYSLDYWGQGTTVTVSS
细胞结合阳性率 (HIT3a signal remaining with ds-Diabody present) [3]: 51.1% | 细胞结合阳性率 (HIT19a signal remaining with ds-Diabody present) [4]: 63.3%
